Substitutions are numbered along the chain they refer to. In names and notes the source's numbering stands.
T1: EsCas13d, nuclease-dead (Eubacterium siraeum, UniProt B0MS50, R295A;H300A;R849A;H854A)
T1 sequence: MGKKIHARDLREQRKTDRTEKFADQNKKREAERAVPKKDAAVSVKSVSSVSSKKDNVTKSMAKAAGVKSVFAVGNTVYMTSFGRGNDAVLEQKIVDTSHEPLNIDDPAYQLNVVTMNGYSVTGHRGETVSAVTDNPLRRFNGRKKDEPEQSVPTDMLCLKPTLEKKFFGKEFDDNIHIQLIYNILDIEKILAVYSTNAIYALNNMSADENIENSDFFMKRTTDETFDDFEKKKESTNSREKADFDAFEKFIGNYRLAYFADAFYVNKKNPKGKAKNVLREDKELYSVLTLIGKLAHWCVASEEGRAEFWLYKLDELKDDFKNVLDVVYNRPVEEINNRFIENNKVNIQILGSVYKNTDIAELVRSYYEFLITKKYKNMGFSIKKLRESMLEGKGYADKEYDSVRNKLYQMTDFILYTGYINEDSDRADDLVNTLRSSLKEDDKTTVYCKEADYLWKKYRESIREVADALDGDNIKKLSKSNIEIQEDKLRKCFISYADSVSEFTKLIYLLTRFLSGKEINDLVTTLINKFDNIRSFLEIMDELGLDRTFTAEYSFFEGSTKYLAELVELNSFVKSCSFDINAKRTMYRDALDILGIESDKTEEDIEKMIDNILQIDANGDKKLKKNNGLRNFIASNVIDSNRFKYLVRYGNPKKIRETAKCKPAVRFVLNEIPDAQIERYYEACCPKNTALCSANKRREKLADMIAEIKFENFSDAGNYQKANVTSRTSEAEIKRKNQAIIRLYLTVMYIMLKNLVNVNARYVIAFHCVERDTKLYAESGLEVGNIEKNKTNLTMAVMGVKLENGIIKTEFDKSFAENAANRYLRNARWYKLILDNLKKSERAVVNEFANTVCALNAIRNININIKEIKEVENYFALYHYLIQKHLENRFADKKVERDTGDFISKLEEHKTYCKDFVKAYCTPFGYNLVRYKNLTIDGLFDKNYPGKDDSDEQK

B1: target 1 insA 3' of 11,insG 3' of 9 (mixed)
RNA 1: CACCCGUGCAAAAAUGCAGGGGUCUAAAACUGAGCGGAUAACCUCUCUAUGG
RNA 2: GGGAAUGGAUCCACAUCUACGAAUUCGUACCAUAGAGAGGUAUAGUCCGCUCACCGAGAUCGGAAGAGCACACGU
B2: target 1 del1,del8 (mixed)
RNA 1: B1 RNA 1
RNA 2: GGGAAUGGAUCCACAUCUACGAAUUCGUACCAUAGAGAGGUUACCGCUCCCGAGAUCGGAAGAGCACACGU
B3: target 1 insC 3' of 18,insA 3' of 2 (mixed)
RNA 1: B1 RNA 1
RNA 2: GGGAAUGGAUCCACAUCUACGAAUUCGUACCAUACGAGAGGUUAUCCGCUCAACCGAGAUCGGAAGAGCACACGU
B4: target 1 del2,del8 (mixed)
RNA 1: B1 RNA 1
RNA 2: B2 RNA 2 with C49A
B5: target 1 insA 3' of 21,insA 3' of 5 (mixed)
RNA 1: B1 RNA 1
RNA 2: B3 RNA 2 with U33A, A34U, C35A, C49A, U50C, C51U, A52C
B6: target 1 U8A,G15A (mixed)
RNA 1: B1 RNA 1
RNA 2: GGGAAUGGAUCCACAUCUACGAAUUCGUACCAUAGAAAGGUUAACCGCUCACCGAGAUCGGAAGAGCACACGU
B7: target 1 G15C,G17A (mixed)
RNA 1: B1 RNA 1
RNA 2: B6 RNA 2 with G35A, A37C, A44U
B8: target 1 G15U,A18U (mixed)
RNA 1: B1 RNA 1
RNA 2: B6 RNA 2 with A34U, A37U, A44U
B9: target 1 C4A,G12U (mixed)
RNA 1: B1 RNA 1
RNA 2: B6 RNA 2 with A37G, G40U, A44U, C48A
B10: target 1 insG 3' of 8,insA 3' of 6 (mixed)
RNA 1: B1 RNA 1
RNA 2: B1 RNA 2 with A42U, U43A, A44U, U46C, C48A
B11: target 1 insG 3' of 22,insG 3' of 22 (mixed)
RNA 1: B1 RNA 1
RNA 2: B1 RNA 2 with C31G, A32G, U33C, G35U, G40A, U41G, A42G, A44U, G45A
B12: target 1 C2U,G17U (mixed)
RNA 1: B1 RNA 1
RNA 2: B6 RNA 2 with G35U, A37G, A44U, C50U
B13: target 1 insU 3' of 21,insA 3' of 15 (mixed)
RNA 1: B1 RNA 1
RNA 2: GGGAAUGGAUCCACAUCUACGAAUUCGUACCUAUAGAGAAGGUUAUCCGCUCACCGAGAUCGGAAGAGCACACGU
B14: target 1 C6A,A9C (mixed)
RNA 1: B1 RNA 1
RNA 2: B6 RNA 2 with A37G, A43C, A44U, C46A
B15: target 1 insU 3' of 13,insA 3' of 8 (mixed)
RNA 1: B1 RNA 1
RNA 2: B1 RNA 2 with G40U, U41G, A42U, G45U, U46A
B16: target 1 G12U,C22A (mixed)
RNA 1: B1 RNA 1
RNA 2: B6 RNA 2 with C30A, A37G, G40U, A44U
B17: target 1 G13A,C21U (mixed)
RNA 1: B1 RNA 1
RNA 2: B6 RNA 2 with C31U, A37G, G39A, A44U
B18: target 1 insC 3' of 15,insG 3' of 7 (mixed)
RNA 1: B1 RNA 1
RNA 2: B1 RNA 2 with A38C, G39A, U41G, A42U, G45U, U46C, C47G
B19: target 1 insC 3' of 17,insU 3' of 6 (mixed)
RNA 1: B1 RNA 1
RNA 2: B3 RNA 2 with C35G, G36C, G48U, C49G, U50C, C51U, A52C
B20: target 1 C2U,C6A (mixed)
RNA 1: B1 RNA 1
RNA 2: B6 RNA 2 with A37G, A44U, C46A, C50U
B21: target 1 insG 3' of 21,insA 3' of 10 (mixed)
RNA 1: B1 RNA 1
RNA 2: B13 RNA 2 with U32G, A40G, G42U, U44A
B22: target 1 insU 3' of 5,insG 3' of 1 (mixed)
RNA 1: B1 RNA 1
RNA 2: GGGAAUGGAUCCACAUCUACGAAUUCGUACCAUAGAGAGGUUAUCCGUCUCAGCCGAGAUCGGAAGAGCACACGU
B23: target 1 insA 3' of 22,insC 3' of 18 (mixed)
RNA 1: B1 RNA 1
RNA 2: B13 RNA 2 with C31A, U32C, G36C, A37G, G38A, A39G
B24: target 1 C7U,C22U (mixed)
RNA 1: B1 RNA 1
RNA 2: B6 RNA 2 with C30U, A37G, A44U, C45U
B25: target 1 insU 3' of 18,insA 3' of 3 (mixed)
RNA 1: B1 RNA 1
RNA 2: B3 RNA 2 with C35U, C51A, A52C
B26: target 1 insU 3' of 17,insG 3' of 4 (mixed)
RNA 1: B1 RNA 1
RNA 2: B3 RNA 2 with C35G, G36U, U50G, C51U, A52C
B27: target 1 C7U (mixed)
RNA 1: B1 RNA 1
RNA 2: B6 RNA 2 with A37G, A44U, C45U
B28: target 1 insG 3' of 18,insU 3' of 18 (mixed)
RNA 1: B1 RNA 1
RNA 2: B1 RNA 2 with A36U, G40A, U41G, A42G, A44U, G45A
B29: target 1 insC 3' of 17,insC 3' of 11 (mixed)
RNA 1: B1 RNA 1
RNA 2: B13 RNA 2 with U32A, A33U, U34A, A35G, G36C, A40G, G42U, U43C
B30: target 1 insA 3' of 7,insA 3' of 5 (mixed)
RNA 1: B1 RNA 1
RNA 2: B1 RNA 2 with A42U, U43A, A44U, G45C, U46A, C48G, G49A
B31: target 1 insA 3' of 22,insC 3' of 20 (mixed)
RNA 1: B1 RNA 1
RNA 2: B13 RNA 2 with C31A, U32C, U34C, A35U, G36A, A37G, G38A, A39G
B32: target 1 C7A,G13U (mixed)
RNA 1: B1 RNA 1
RNA 2: B6 RNA 2 with A37G, G39U, A44U, C45A
B33: target 1 insU 3' of 12,insA 3' of 8 (mixed)
RNA 1: B1 RNA 1
RNA 2: B1 RNA 2 with A42U, G45U, U46A
B34: target 1 insA 3' of 15,insU 3' of 15 (mixed)
RNA 1: B1 RNA 1
RNA 2: B1 RNA 2 with G39U, G40A, U41G, A42G, A44U, G45A

Molecular target: T1, EsCas13d, nuclease-dead
Assay: crRNA (strand 1, pre-loaded); Mg2+; 40 mM Tris-HCl pH 7.5, 150 mM NaCl, 6 mM MgCl2, 1 mM DTT, 0.1% Tween-20, 0.2 mg/ml BSA; 25 C; 10 min per concentration, then washed
Settings: tags: His6-TwinStrep-SUMO cleaved; N-terminal SNAP kept (SNAP-Surface 488); label: 3' end held by stalled T7 RNA polymerase

Row | Binder | Kd [nM]
1 | B1 | 23.7 ± 2
2 | B2 | 17.3 ± 1.7
3 | B3 | 28.1 ± 2.6
4 | B4 | 10 ± 0.5
5 | B5 | 14.3 ± 0.9
6 | B6 | 87 ± 23
7 | B7 | 90 ± 40
8 | B8 | 70 ± 13
9 | B9 | 8.5 ± 1.3
10 | B10 | 13.1 ± 0.8
11 | B11 | 34.6 ± 2.2
12 | B12 | 20.5 ± 2.4
13 | B13 | 18.5 ± 1.7
14 | B14 | 23 ± 1.5
15 | B15 | 14.1 ± 0.7
16 | B16 | 19.7 ± 1
17 | B17 | 7.8 ± 0.7

Row | Binder | Kd [nM]
18 | B18 | 17.5 ± 1.2
19 | B19 | 64 ± 8
20 | B20 | 6 ± 0.4
21 | B21 | 84 ± 24
22 | B22 | 7.4 ± 0.6
23 | B23 | 47 ± 8
24 | B24 | 14.2 ± 1.3
25 | B25 | 20.7 ± 0.7
26 | B26 | 14.5 ± 1.3
27 | B27 | 7.5 ± 0.4
28 | B28 | 68 ± 11
29 | B29 | 80 ± 26
30 | B30 | 7.21 ± 0.35
31 | B31 | 5.9 ± 0.23
32 | B32 | 59 ± 21
33 | B33 | 12.3 ± 0.7
34 | B34 | 15.7 ± 1.2

— publication PMC10786891, “Massively parallel profiling of RNA-targeting CRISPR-Cas13d”
